Reference: US20110212110A1 (INNATE PHARMA, published 2011)

Key:
[1] = target: T1, human TLR4 expressed in 293T cells (293T-TLR4 transfectants) (human, UniProt O00206 24-839); assay: IHC on paraffin-embedded cell pellet, ENVISION amplification
T1 construct: also called Toll-Like Receptor 4
Protocol: 40F9.6 was tested on tonsil tissue with different detection systems, in order to identify the detection system yielding the strongest signal, with the lowest […]. The ENVISION System commercialized by DAKO A/S (Glostrup, Denmark) was selected. ENVISION is an amplification system based on an HRP-labeled polymer conjugated to secondary antibodies. Tissue sections were dewaxed and rehydrated before the antigen unmasking procedure in boiled citrate buffer (pH6). Endogenous peroxydases were blocked by a 3% solution of H₂O₂.
40F9.6 was tested in a series of paraffin-embedded samples.

[2] = target: T2, recombinant human His-tagged TLR3 extracellular domain protein (R&D systems, #1487-TR-050) (human, UniProt O15455 24-704); assay: ELISA, His-tagged TLR3 or TLR4 on Ni-NTA plates, hybridoma supernatant, goat anti-mouse F(ab) IgG-HRP
T2 construct: Bought protein; also called recombinant human TLR3; rec TLR3; not shown: His tag
From the text: Immune spleen cells were fused with X63.Ag8.653 immortalized B cells, and cultured in the presence of irradiated spleen cells. 40 culture plates were obtained and evaluated in a first screen for TLR3 binding using an ELISA developed for detection of binding to TLR3. Briefly, His-tagged recombinant TLR3 protein (R&D systems, #1487-TR-050) was coated on Ni-NTA 96-wells plates (Qiagen). […] Positive supernatants were selected and tested for lack of binding to TLR4. Briefly, His-tagged rec TLR4 protein (R&D systems, #3146-TR-050) were coated on Ni-NTA 96-wells plates (Qiagen). […] TLR4 was chosen as a 2nd screen in order to discriminate among wells selected in the 1st screen, where anti-His specific antibody from TLR3 specific antibody were used.
Cloning of hybridomas of potential interest. 42 potentially interesting hybridomas selected from the initial screening were cloned by limiting dilution techniques in 96-wells plates, and 304 subclones were tested in a series of screens as follows. […] All supernatants yielding a ratio above 10 for DO obtained in TLR3 ELISA to DO obtained in TLR4 ELISA were selected as specific for TLR3. Among them was supernatant from well F9 of plate 40 (40F9).

binding result [1]: no binding (tested: 10 µg/ml)
ratio of DO obtained in TLR3 ELISA to DO obtained in TLR4 ELISA [2]: 10
B1: monoclonal antibody 40F9 (clone 40F9.6) (antibody, mouse IgG1, V domains shown)
VH: QIQLVQSGPELKKPGETVKISCKASGYTFTNYGMNWVKQAPGKGLKWMGWINANTGEPTYAEEFKGRFAFSLETSDSTAYLQINNLKNEDTATYFCASDYDYWGQGTTLTVSS
VL: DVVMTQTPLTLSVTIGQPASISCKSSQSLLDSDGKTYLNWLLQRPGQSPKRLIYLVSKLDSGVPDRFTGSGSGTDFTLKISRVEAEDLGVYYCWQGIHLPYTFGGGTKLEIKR
notes: Mouse hybridoma antibody (Balb/c); also called supernatant from well F9 of plate 40
